Results on three proteins are retold here after patent publication US20140255299A1 (UNIVERSITY OF CENTRAL FLORIDA RESEARCH FOUNDATION, published 2014).

The series concerns the molecule itself. Description: kinetics of calcein release from lipid vesicles; peptide self-association within the membrane.

B1: Bax C-terminal 20-residue peptide, lysines replaced with leucines (charge neutralization mutant) (peptide)
peptide: VTIFVAGVLTASLTIWLLMG
notes: K189/K190 replaced by LL; also called CT20 Bax LL; CT20-LL
As to B1, the binding result is listed as “binds”.

B2: Bax C-terminal 20-residue peptide (CT20p), wild type (peptide)
peptide: Ac-VTIFVAGVLTASLTIWKKMG-NH2
notes: Synthetic peptide of the last 20 amino acids of Bax; also called CT20 Bax WT; CT20 peptide
Take B2: the binding result was “binds”.

B3: Bax C-terminal 20-residue peptide, lysines replaced with glutamates (charge reversal mutant) (peptide)
peptide: VTIFVAGVLTASLTIWEEMG
notes: K189/K190 replaced by EE; also called CT20 Bax EE; CT20-EE
Take B3: the binding result is on record as “binds”.
